# Assay results as given in US20250011363A1, “OPTIMIZED SHORTENED PEPTIDE THAT BINDS TO ACETYLCHOLINE RECEPTOR, AND USE THEREOF” (SKINMED CO., LTD., priority 2021, published 2025).
# Target: acetylcholine receptor (Homo sapiens, UniProt P02708)
# Test: SPR binding affinity (RU) of optimized 5mer/6mer/7mer peptides, Examples 6-7
# Conditions: 6mer-1 Top sequence; SPR; peptides tested at 10 μM
# Outline: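 Peptides were tested at 10 μM by surface plasmon resonance against the receptor, with binding reported as response units. Library sequences were built from frequent (top) or infrequent (bottom) amino acid combinations in 5mer, 6mer-1 and 6mer-2 series.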
# Sequence of acetylcholine receptor (P02708 21-457): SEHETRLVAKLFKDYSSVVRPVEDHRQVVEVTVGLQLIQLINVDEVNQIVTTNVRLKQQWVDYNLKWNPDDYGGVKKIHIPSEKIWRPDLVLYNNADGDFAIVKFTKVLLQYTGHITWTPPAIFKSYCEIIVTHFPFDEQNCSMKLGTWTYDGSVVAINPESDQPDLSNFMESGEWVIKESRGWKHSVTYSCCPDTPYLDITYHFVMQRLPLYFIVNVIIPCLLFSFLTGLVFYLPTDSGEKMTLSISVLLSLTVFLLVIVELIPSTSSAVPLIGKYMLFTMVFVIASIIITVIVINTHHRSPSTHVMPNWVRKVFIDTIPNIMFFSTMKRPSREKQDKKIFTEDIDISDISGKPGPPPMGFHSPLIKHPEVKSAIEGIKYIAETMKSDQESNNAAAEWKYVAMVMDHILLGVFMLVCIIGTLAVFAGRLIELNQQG
row,Substance,Binding affinity [Ru]
1,6mer-1-335 (RRSQRR),148
2,6mer-1-356 (KRGYSK),153
3,6mer-1-362 (KRVVYK),133

# Same assay, conditions: 6mer-2 Top sequence; SPR; peptides tested at 10 μM
row,Substance,Binding affinity [Ru]
1,6mer-2-37 (KLLYRK),148
2,6mer-2-90 (KGRTKR),133
3,6mer-2-86 (KQFRRK),126
4,6mer-2-95 (RRIYRK),142
5,6mer-2-66 (RVIRRR),123

# Same assay, conditions: SPR, Resonance Units; 5mer Bottom sequence (bottom combinations); peptides tested at 10 μM
row,Substance,Binding affinity [Ru]
1,5mer-744 (KTEAK),32
2,5mer-1018 (KFWAK),20
3,5mer-982 (KFMHK),12
4,5mer-747 (RKTDK),31
5,5mer-602 (KMSVR),12
6,5mer-613 (RAEFR),20
7,5mer-1037 (KKSFR),28
8,5mer-643 (KHDGR),28
9,5mer-688 (RPHFK),31
10,5mer-1083 (KFSVR),31
11,5mer-1078 (KEAWK),19
12,5mer-697 (KASKK),25
13,5mer-1034 (RFAKK),14
14,5mer-1058 (KIPWR),25
15,5mer-775 (RHTVK),23
16,5mer-673 (RISPR),14
17,5mer-1066 (RFWVK),25
18,5mer-714 (RPCAK),32
19,5mer-660 (KFDVK),11

# Same assay, conditions: SPR, Resonance Units; peptides tested at 10 μM; 6mer-1 Bottom sequence
row,Substance,Binding affinity [Ru]
1,6mer-1-1060 (KRYNVR),21
2,6mer-1-1002 (KRIHMK),29
3,6mer-1-1008 (RKPWAR),21
4,6mer-1-1140 (KRATMK),43
5,6mer-1-1084 (KKCCPK),25
6,6mer-1-1051 (KKKSFK),43
7,6mer-1-1083 (KKNAVR),36

# Same assay, conditions: SPR, Resonance Units; peptides tested at 10 μM; 6mer-1 Bottom sequence (Table 11)
row,Substance,Binding affinity [Ru]
1,6mer-1-706 (KRMKDR),29
2,6mer-1-768 (RKFEWK),32
3,6mer-1-664 (KRDHIK),26
4,6mer-1-662 (KKMTER),20
5,6mer-1-765 (KRASPK),25
6,6mer-1-728 (RRDNAR),23
7,6mer-1-639 (KRPNVR),24
8,6mer-1-651 (KRICWK),27
9,6mer-1-700 (RKKMWK),19
10,6mer-1-642 (KKYNGK),24
11,6mer-1-739 (RKCCEK),32
12,6mer-1-607 (KKDHFR),22

# Same assay, conditions: SPR, Resonance Units; peptides tested at 10 μM; 6mer-2 Bottom sequence
row,Substance,Binding affinity [Ru]
1,6mer-2-807 (KIWNRK),28
2,6mer-2-934 (KYKDRR),26
3,6mer-2-884 (KMTMKK),11
4,6mer-2-639 (KHTVKK),23
5,6mer-2-727 (RDMIKR),11
6,6mer-2-843 (KAPDRK),33
7,6mer-2-766 (RPTFRK),23
8,6mer-2-818 (KTPERK),13
9,6mer-2-721 (RHSKKK),26
10,6mer-2-951 (RADEKK),42
11,6mer-2-637 (RPPVRK),32
12,6mer-2-683 (KTEIRK),33
13,6mer-2-880 (RTHHKK),12
14,6mer-2-768 (KYMGRK),22
15,6mer-2-882 (RTPAKR),15

# Same assay, conditions: SPR, Resonance Units; peptides tested at 10 μM; 6mer-2 Top sequence
row,Substance,Binding affinity [Ru]
1,6mer-2-517 (KLRTKK),153
2,6mer-2-599 (RRRYRK),121
3,6mer-2-481 (RQRYKK),131
4,6mer-2-444 (RQRLKK),141
5,6mer-2-470 (RLRRRK),153
6,6mer-2-565 (KSRRRR),147
7,6mer-2-571 (RGYQRR),135
8,6mer-2-519 (KQIQRR),135
9,6mer-2-430 (RWFRRR),139
10,6mer-2-498 (KGLCRR),127
11,6mer-2-439 (KWFSKR),153
12,6mer-2-597 (KQFLRK),154

# Same assay, conditions: SPR, Resonance Units; peptides tested at 10 μM; 6mer-2 Top sequence (Table 12)
row,Substance,Binding affinity [Ru]
1,6mer-2-382 (KSVSRR),148
2,6mer-2-335 (KWRSRR),153
3,6mer-2-343 (KQISKK),146
4,6mer-2-323 (KVLLRK),145
5,6mer-2-209 (RLYYRK),148
6,6mer-2-372 (KLVQRR),141
7,6mer-2-288 (KSRLRK),122

# Same assay, conditions: SPR, peptides at 10 μM; 6mer-2 Bottom sequence
row,Substance,Binding affinity [Ru]
1,6mer-2-1085 (RPEIRK),42
2,6mer-2-1020 (KHDKKR),21
3,6mer-2-1112 (RASWRK),26
4,6mer-2-1084 (REKPRK),29
5,6mer-2-1145 (RIKNRR),23

# Same assay, conditions: SPR, peptides tested at 10 μM; 5mer Top sequence
row,Substance,Binding affinity [Ru]
1,5mer-121 (RQVTR),73
2,5mer-325 (KRIQR),50
3,5mer-312 (KRYCR),81
4,5mer-87 (RQITR),55
5,5mer-187 (RWVCR),74
6,5mer-388 (KLFCK),78
7,5mer-322 (RRQSR),84
8,5mer-410 (RRFLR),76
9,5mer-129 (KSLLK),63
10,5mer-469 (KSRRR),69
11,5mer-120 (RQILK),68
12,5mer-114 (KRQRR),82
13,5mer-335 (KSLTR),56
14,5mer-67 (RQLYR),86
15,5mer-43 (KSFYR),53
16,5mer-62 (KQLTK),70
17,5mer-157 (KGRCR),78
18,5mer-52 (RQQYK),50

# Same assay, conditions: SPR, peptides tested at 10 μM; 5mer Top sequence (top combinations)
row,Substance,Binding affinity [Ru]
1,5mer-222 (KWLLR),86
2,5mer-585 (RSVSK),74
3,5mer-599 (KWVSR),61
4,5mer-257 (RQFTR),85
5,5mer-248 (RWYLK),63

# Same assay, conditions: SPR, peptides tested at 10 μM; 6mer-1 Bottom sequence
row,Substance,Binding affinity [Ru]
1,6mer-1-1199 (KKTNKR),39

# Same assay, conditions: SPR, peptides tested at 10 μM; 6mer-1 Bottom sequence (Table 11)
row,Substance,Binding affinity [Ru]
1,6mer-1-870 (KRMSHR),25
2,6mer-1-842 (RRFANK),11
3,6mer-1-905 (RRICER),36
4,6mer-1-878 (RRKDNR),27
5,6mer-1-823 (KRHTGK),12
6,6mer-1-922 (RRDWGR),34
7,6mer-1-816 (RKIDFK),14
8,6mer-1-871 (KREWDR),30
9,6mer-1-936 (RKETDR),36
10,6mer-1-863 (RRCTER),27
11,6mer-1-841 (KKDAPR),30
12,6mer-1-894 (RKCWWR),18
13,6mer-1-964 (RKFKNK),42

# Same assay, conditions: SPR, peptides tested at 10 μM; 6mer-1 Top sequence
row,Substance,Binding affinity [Ru]
1,6mer-1-478 (RKVRYK),139
2,6mer-1-430 (KKQLQK),144
3,6mer-1-520 (KRQIYK),127
4,6mer-1-570 (RKRLRK),122
5,6mer-1-444 (KKWILK),144
6,6mer-1-550 (RRLICR),148
7,6mer-1-519 (KRRQCK),147
8,6mer-1-581 (KRGLYK),139
9,6mer-1-469 (KKLIYR),139
10,6mer-1-528 (KRSYTR),139

# Same assay, conditions: SPR, peptides tested at 10 μM; 6mer-1 Top sequence (top combinations)
row,Substance,Binding affinity [Ru]
1,6mer-1-103 (RKRICK),122
2,6mer-1-48 (RRWVRR),124
3,6mer-1-139 (KRRFLR),122
4,6mer-1-67 (RRSYTR),135
5,6mer-1-141 (RKLYQK),141
6,6mer-1-178 (RKRYQK),139
7,6mer-1-183 (KKGQTR),121
8,6mer-1-8 (RKRRRK),125

# Same assay, conditions: SPR; XRRGVRR-7mer and RRGVRRX-7mer
row,Substance,"Binding affinity, values relative to the RRGVRR sequence"
1,3652 (TRRGVRR) [compound 3652],105

# Same assay, conditions: SPR; XRRQRR-6mer and RRQRRX-6mer
row,Substance,"Binding affinity, relative value to the RRQRR sequence"
1,3632 (RRQRRT) [compound 3632],117
2,3619 (DRRQRR) [compound 3619],163
3,3610 (FRRQRR) [compound 3610],143

# Same assay, conditions: SPR; peptides tested at 10 μM; 5mer Bottom sequence
row,Substance,Binding affinity [Ru]
1,5mer-1193 (KHWFK),22
2,5mer-1118 (RMDAR),28
3,5mer-813 (RAHVR),21
4,5mer-832 (RMHER),18
5,5mer-1183 (RHAPK),13
6,5mer-1178 (RFDNR),22
